Substitutions are numbered along the chain they refer to.

In test [1] the target is T1, ALPP (human, UniProt P05187 23-506).
T1 construct: Expressed on transfected HEK293 cells; also called placentally expressed ALPP
In words: FACS on live ALPP-transfected HEK293 cells.

In test [2] the target is T2, ALPL (UniProt P05186 18-501, limits assumed).
T2 construct: whole, on cells; Expressed on ALPL-transfected HEK293 cells; also called tissue-nonspecific, liver/bone/kidney alkaline phosphatase
T2 sequence (looked up): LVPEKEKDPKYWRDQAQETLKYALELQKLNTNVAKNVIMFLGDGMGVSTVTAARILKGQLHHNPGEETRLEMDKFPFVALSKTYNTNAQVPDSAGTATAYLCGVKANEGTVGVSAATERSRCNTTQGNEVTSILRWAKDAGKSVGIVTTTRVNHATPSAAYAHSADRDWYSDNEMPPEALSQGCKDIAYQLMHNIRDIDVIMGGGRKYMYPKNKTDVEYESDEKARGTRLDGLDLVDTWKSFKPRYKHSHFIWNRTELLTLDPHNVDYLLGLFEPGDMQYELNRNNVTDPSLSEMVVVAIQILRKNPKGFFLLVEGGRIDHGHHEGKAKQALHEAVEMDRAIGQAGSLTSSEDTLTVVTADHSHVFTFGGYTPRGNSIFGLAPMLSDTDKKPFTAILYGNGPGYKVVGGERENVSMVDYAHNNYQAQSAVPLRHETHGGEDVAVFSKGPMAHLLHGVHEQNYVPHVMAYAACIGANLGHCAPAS
Description: FACS on live transfected HEK293 cells, IgG1.

Test [3] concerns the target T3, ALPPL2 (human, UniProt P10696 20-503).
T3 construct: Expressed from an ALPPL2 plasmid or cDNA on HEK293 cells, and endogenous on tumor cells; also called placentally expressed ALPPL2; membrane ALPPL2
Description: FACS on live HEK293 cells transfected with ALPPL2 (GFP+ gated), curve fit of normalized MFI; ALPPL2-transfected HEK293 cells. Here is the method: Cells were incubated with antibody at room temperature for 1h in PBS/0.2% fetal calf serum, washed three times and further incubated with ALEXAFLOU®-647-labeled anti-human secondary antibody. GFP+ cells were gated and analyzed for mean fluorescence intensity (MFI). […] Similar binding results were obtained on ALPP-transfected cells. There is no binding to ALPL-transfected cells.

For test [4], the target named is T3, ALPPL2. In words: apparent affinity on tumor cells, IgG1; method and cell line not stated; tumor cells, IgG1 form.
Test [5] has as its target T4, ALPI (UniProt P09923 20-503, limits assumed).
T4 construct: whole, on cells; Expressed on ALPI-transfected HEK293 cells; also called intestinal alkaline phosphatase
T4 sequence (looked up): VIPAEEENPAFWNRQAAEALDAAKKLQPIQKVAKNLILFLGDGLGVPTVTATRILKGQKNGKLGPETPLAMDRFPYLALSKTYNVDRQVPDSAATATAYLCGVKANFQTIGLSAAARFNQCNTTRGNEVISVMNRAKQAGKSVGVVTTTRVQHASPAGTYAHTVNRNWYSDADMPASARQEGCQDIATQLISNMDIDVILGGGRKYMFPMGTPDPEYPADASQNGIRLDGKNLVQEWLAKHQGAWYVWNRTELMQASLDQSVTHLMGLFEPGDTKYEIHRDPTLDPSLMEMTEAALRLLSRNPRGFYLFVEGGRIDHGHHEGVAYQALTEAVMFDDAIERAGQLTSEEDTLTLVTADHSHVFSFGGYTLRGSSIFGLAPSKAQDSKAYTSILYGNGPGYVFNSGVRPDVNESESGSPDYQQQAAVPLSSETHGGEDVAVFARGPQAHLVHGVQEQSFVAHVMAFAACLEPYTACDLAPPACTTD
Description: FACS on live transfected HEK293 cells, IgG1.

Test [6] concerns the target T3, ALPPL2. In words: FACS on live HEK293 cells transfected with ALPPL2 (GFP+ gated), curve fit of normalized MFI. Here is the method: Cells were incubated with antibody at room temperature for 1h in PBS/0.2% fetal calf serum, washed three times and further incubated with ALEXAFLOU®-647-labeled anti-human secondary antibody. GFP+ cells were gated and analyzed for mean fluorescence intensity (MFI). […] Similar binding results were obtained on ALPP-transfected cells. There is no binding to either ALPL or ALPI-transfected cells.

T3 sequence (P10696 20-503 limits assumed): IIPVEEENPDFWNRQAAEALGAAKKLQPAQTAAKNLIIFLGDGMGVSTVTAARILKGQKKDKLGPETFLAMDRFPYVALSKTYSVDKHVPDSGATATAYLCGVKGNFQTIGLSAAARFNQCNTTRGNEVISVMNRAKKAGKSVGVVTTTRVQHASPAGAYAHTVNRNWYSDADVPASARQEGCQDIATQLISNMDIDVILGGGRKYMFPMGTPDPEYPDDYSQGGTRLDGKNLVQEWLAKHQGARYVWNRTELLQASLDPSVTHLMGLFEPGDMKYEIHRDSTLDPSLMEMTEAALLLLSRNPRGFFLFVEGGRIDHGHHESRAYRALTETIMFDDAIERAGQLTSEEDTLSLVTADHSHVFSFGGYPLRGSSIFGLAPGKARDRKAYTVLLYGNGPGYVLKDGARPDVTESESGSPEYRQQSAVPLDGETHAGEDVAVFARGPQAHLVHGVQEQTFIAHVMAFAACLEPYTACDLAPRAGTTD
T1 sequence (P05187 23-506 limits assumed): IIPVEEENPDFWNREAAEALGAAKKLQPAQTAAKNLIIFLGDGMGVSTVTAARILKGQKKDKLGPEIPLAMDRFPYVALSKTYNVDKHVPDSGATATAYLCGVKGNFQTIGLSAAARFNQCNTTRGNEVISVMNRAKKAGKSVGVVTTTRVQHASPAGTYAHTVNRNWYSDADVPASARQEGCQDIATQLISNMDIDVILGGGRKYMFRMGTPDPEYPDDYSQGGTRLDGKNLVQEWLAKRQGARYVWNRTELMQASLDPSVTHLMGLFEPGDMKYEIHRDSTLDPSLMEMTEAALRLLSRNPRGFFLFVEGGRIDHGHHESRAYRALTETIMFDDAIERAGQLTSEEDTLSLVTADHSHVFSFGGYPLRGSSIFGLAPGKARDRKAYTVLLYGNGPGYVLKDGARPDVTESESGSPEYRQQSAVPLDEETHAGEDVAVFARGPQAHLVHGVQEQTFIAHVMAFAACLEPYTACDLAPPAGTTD

B1: M25ADLF IgG1 (antibody, V domains shown)
VH: QVQLQQSGGGLVKPGGSLRLSCAASGFTFSSYDMHWVRQAPGKGLEWVAVISYDGSNKYYADSVKGRFTISRDNSKNTLYLQMDSLRAEDTAVYFCAKEGDSSRWSYDLWGRGTLVTVSS
VL: QSALTQPASVSGSPGQSITISCTGTSSDVGGYNYVSWYQQHPGKAPKVMIYDVTNRPSGVSNRFSGSKSGNTASLTISGLQAEDEADYYCSSYTSTSTFVVFGGGTKLTVLG
notes: Tested as human IgG1; Residue limits are from CLM-00120
Take B1: the binding result was “binds” in test [1] and “no binding” in test [2]. In addition, the Kd in test [3] was 0.017 nM.

B2: M25FYIA IgG1 (antibody, V domains shown)
VH: B1 VH with D33A, F95Y
VL: QSALTQPASVSGSPGQSITISCTGTSSDVGGYNYVSWYQQHPGKAPKVMIYDVTNRPSGVSNRFSGSKSGNTASLTISGLQAEDEADYYCSSYTIASTLVVFGGGTKLTVL
notes: Tested as human IgG1
Take B2: the binding result in test [1] is given as “binds”; in test [2], “no binding”. Further, in test [3], the Kd was found to be 0.0204 nM.

B3: M25AD IgG1 (antibody, V domains shown)
VH: B1 VH
VL: B2 VL with I95S, A96T
notes: Tested in its IgG1 form; also called a variant of M25
As for B3, the Kd in test [4] was 0.028 nM.

B4: M25 IgG1 (antibody, V domains shown)
VH: B1 VH with D33A
VL: B2 VL with I95S, A96T
notes: also called our M25 antibody; our anti-ALPPL2 antibody M25
As for B4, the binding result is on record as “binds” in test [1], “no binding” in test [2] and “no binding” in test [5]. The molecule further yielded a Kd in test [6] of 0.506 nM.
